No end group written: not given here.
T1: human CD27 (HA-tagged, expressed in HEK293 cells) (human, UniProt P26842 20-260, limits assumed)
T1 construct: Plasmid printed as 'pcDNA3-HA-CD2'; not shown: HA tag
T1 sequence (looked up): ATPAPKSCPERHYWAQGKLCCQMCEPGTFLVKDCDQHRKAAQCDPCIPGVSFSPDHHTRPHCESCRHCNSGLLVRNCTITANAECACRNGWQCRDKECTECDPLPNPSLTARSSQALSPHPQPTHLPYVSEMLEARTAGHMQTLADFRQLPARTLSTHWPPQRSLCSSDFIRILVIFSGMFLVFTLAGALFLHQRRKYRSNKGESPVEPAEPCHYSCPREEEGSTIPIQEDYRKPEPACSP

T2: human SEMG2 full-length protein (human, UniProt Q02383 24-582, limits assumed)
T2 construct: also called SEMG2 protein; semenogelin 2
T2 sequence: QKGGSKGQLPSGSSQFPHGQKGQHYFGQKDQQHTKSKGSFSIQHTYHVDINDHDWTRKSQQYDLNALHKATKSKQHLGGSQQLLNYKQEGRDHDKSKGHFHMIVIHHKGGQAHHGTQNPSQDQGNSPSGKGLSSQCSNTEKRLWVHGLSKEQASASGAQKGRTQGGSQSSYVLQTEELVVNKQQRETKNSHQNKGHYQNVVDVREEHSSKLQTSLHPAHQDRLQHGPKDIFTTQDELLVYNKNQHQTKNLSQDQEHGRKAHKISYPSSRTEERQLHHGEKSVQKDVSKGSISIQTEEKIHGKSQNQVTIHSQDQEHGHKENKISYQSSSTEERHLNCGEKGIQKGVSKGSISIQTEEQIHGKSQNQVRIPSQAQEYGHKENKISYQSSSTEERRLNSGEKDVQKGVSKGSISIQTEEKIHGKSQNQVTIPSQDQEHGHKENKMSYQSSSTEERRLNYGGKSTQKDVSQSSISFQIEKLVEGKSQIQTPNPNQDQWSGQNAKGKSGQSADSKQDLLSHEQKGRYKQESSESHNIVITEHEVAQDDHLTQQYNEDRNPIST

T3: BSA-conjugated human SEMG2 (497-509) polypeptide (human, also: coupled to BSA, site not given here)
T3 peptide: QIEKLVEGKSQIQ

B1: SEMG2-P6 fused with GFP (other)
chain: EQKGRYKQESSESHNIVITEHEVAQDDHLTQQYNEDRNPIST
modifications: also: fused to GFP, variant, linker and side of fusion not given here
notes: not shown: GFP fusion partner
B2: 96-10V-10 (antibody, V domains shown)
VH: QVQLLESGGGLVQPGGSLRLSCSASGFTFSSYAMHWVRQAPGKGLEYVSAISSNGGSTYYADSVKGRFTISRDNSKNTLYLQMSSLRAEDTAVYYCVIEGGSTGSTVSGAFDIWGQGTMVTVSS
VL: DIQMIQSPPSVSASVGDTVTIACRANQGIDSWLAWYQQKPGRAPKLLIYSASRLQSGVPSRFSGGGSGTDFALTISNLQPEDFATYYCQQALSLPITFGQGTRLEIK
B3: H88-96 (antibody, V domains shown)
VH: QVQLLESGGGLVQPGGSLRLSCSASGFTFSSYAMHWVRQAPGKGLEYVSAISSNGGSTYYADSVKGRFTISRDNSKNTLYLQMSSLRAEDTAVYYCVIEGGSTTGTTSGAFDIWGQGTMVTVSS
VL: DIQMIQSPPSVSASVGDTVTIACRANQGIDSWLAWYQQKPGRAPKLLIYSASRLQSGVPSRFSGGGSGTDFALTISNLQPEDFATYYCQQALSLPITFGQGTRLEIK
notes: Fully human full-length antibody built from a phage Fab
B4: SEMG2-P4 fused with GFP (other)
chain: EYGHKENKISYQSSSTEERRLNSGEKDVQKGVSKGSISIQTEEKIHGKSQNQVTIPSQDQEHGHKENKMSYQSSSTEERRLNYGGKSTQKDVSQSSIS
notes: not shown: GFP fusion partner
B5: SEMG2-P3 fused with GFP (other)
chain: KAHKISYPSSRTEERQLHHGEKSVQKDVSKGSISIQTEEKIHGKSQNQVTIHSQDQEHGHKENKISYQSSSTEERHLNCGEKGIQKGVSKGSISIQTEEQIHGKSQNQVRIPSQAQ
notes: not shown: GFP fusion partner
B6: H88-67 (antibody, V domains shown)
VH: QVQLLESGGGVVQPGRSLRLSCAASGFTFSSYAMHWVRQAPGKGLEWVAVISYDGSNKYYADSVKGRFTISRDNSKNTLYLQMNSLRAEDTAVYYCARMDGSGSPDYWGQGTLVTVSS
VL: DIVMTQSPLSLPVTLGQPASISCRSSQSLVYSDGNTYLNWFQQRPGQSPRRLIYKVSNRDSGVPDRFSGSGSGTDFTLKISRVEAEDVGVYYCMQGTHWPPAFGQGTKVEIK
notes: as for B3
B7: MM05V4V2 (antibody, V domains shown)
VH: QVQLVQSGAEVKKPGASVKVSCKASGYTFTSYWMNWVRQAPGQGLEWVGMIDPSDSETHYAQKFQGRVTITADKSTSTVYMELSSLRSEDTAVYYCARYLGGKEGSFDYWGQGTLVTVSS
VL: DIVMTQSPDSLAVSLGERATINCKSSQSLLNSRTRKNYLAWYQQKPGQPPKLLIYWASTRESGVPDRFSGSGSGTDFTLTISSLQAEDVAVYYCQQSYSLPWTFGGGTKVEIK
notes: humanized MM05 antibody, one member of the group m49
B8: MM05V3V2 (antibody, V domains shown)
VH: QVQLVQSGAEVKKPGASVKVSCKASGYTFTSYWMNWVRQAPGQGLEWVGMIDPSDSETHYAQKFQGRVTITVDKSTSTVYMELSSLRSEDTAVYYCARYLGGKEGSFDYWGQGTLVTVSS
VL: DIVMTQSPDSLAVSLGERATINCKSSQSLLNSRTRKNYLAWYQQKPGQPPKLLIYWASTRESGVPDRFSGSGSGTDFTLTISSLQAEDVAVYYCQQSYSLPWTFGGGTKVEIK
notes: as for B7
B9: MM05V4V1 (antibody, V domains shown)
VH: QVQLVQSGAEVKKPGASVKVSCKASGYTFTSYWMNWVRQAPGQGLEWVGMIDPSDSETHYAQKFQGRVTITADKSTSTVYMELSSLRSEDTAVYYCARYLGGKEGSFDYWGQGTLVTVSS
VL: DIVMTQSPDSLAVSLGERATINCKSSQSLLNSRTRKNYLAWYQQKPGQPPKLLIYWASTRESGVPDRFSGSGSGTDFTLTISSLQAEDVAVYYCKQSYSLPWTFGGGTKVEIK
notes: as for B7

What was measured:
[1] = target: T1, human CD27 (HA-tagged, expressed in …); test: co-immunoprecipitation, HEK293 co-transfection
Experimental: In co-immunoprecipitation experiment, cells were lysed in IP buffer (Thermo Scientific) and Roche complete protease inhibitor for 10 minutes, followed by the addition of benzonase (sigma) for 25 minutes at room temperature. The lysate was then centrifuged at 15,000 rpm at 4° C. to remove the precipitate. The supernatant was then incubated with primary antibody slowly rotated overnight at 4° C., followed by the addition of protein A or protein G dynabeads and incubated at 4° C. for 2 hours, washed for 4 times in PBST (PBS with 0.01% Tween 20), eluted with 50 mM DTT in SDS sample buffer for 10 minutes at 100° C., separated with SDS, and immunoblotted as previously described.
To further confirm which part of SEMG-2 binds to CD27, fragments of SEMG2 protein were designed. The amino acid sequence of full-length SEMG2 protein (SEQ ID NO:1) was divided into 6 segments of sequences, fused with GFP and named as SEMG2-P1, SEMG2-P2, SEMG2-P3, SEMG2-P4, SEMG2-P5 and SEMG2-P6 (See Table 1 for specific sequences, with corresponding abbreviation as P1-P6 respectively). Plasmids expressing these amino acid sequences were co-transfected with CD27 into HEK293 cells, and co-immunoprecipitation experiments were performed to identify the main fragment of SEMG2 that binds to CD27.

[2] = target: T2, human SEMG2 full-length protein; test: ELISA on SEMG2; the EC50 table prints no unit, the axis is log (antibody concentration, nM)
[3] = target: T2, human SEMG2 full-length protein; test: ELISA (FIG. 21B-D)
[4] = target: T3, BSA-conjugated human SEMG2 (497-509) …; test: ELISA (FIG. 21B-D)
[5] = target: T3, BSA-conjugated human SEMG2 (497-509) …; test: ELISA on BSA-S2 (497-509); curve without upper plateau; the EC50 table prints no unit, the axis is log (antibody concentration, nM)
[6] = target: T2, human SEMG2 full-length protein; test: ELISA on SEMG2; the EC50 table prints no unit, the axis is log (antibody concentration, nM); remark: listed apart in the source
[7] = target: T2, human SEMG2 full-length protein; test: biolayer interferometry (ForteBio Blitz or Gator)
Experimental: The equilibrium dissociation constant (KD) of the antibody of the present invention binding to human SEMG2 was determined by biolayer interferometry (ForteBio Bltz or Gator instrument). […] 100 μl of SD buffer, antibody and SEMG2 were added to a 96-well black polystyrene half area microplate, respectively. Select the sensor location based on the sample location layout. KD values were analyzed using molecular interaction analysis software. In the experiments of the assays, the affinity constants of murine monoclonal antibodies and human antibodies H88-67, H88-93 and H88-96 are shown in Table 8, and the affinity and dissociation curves of SEMG2 and corresponding proteins are shown in FIG. 25.

[8] = target: T2, human SEMG2 full-length protein; test: ELISA on SEMG2; the EC50 table prints no unit, the axis is log (antibody concentration, nM); remark: listed apart in the source
[9] = target: T2, human SEMG2 full-length protein; test: ELISA on SEMG2 protein; the EC50 table prints no unit, the axis is log (antibody concentration, nM)

| Binder | binding result [1] | EC50 [5] [nM] | EC50 [9] [nM] | other results |
| --- | --- | --- | --- | --- |
| B1 | no binding | – | – | – |
| B2 | – | 32.2 | – | EC50 [2]: 0.358 nM; fold higher affinity than the parent antibody (H88-96) [3]: > 10 fold; fold higher affinity than the parent antibody (H88-96) [4]: > 10 fold |
| B3 | – | 95.7 | – | EC50 [6]: 9.3 nM; Kd [7]: 14 nM; EC50 [2]: 14 nM |
| B4 | no binding | – | – | – |
| B5 | no binding | – | – | – |
| B6 | – | 57.5 | – | EC50 [6]: 0.863 nM; Kd [7]: 28.4 nM; EC50 [8]: 2.13 nM |
| B7 | – | – | 0.18 | – |
| B8 | – | – | 0.092 | – |
| B9 | – | – | 0.123 | – |

Reference: patent publication US20230080534A1 (SHANGHAI BIOTROY BIOTECHNIQUE, published 2023)
